Assay results published in patent US20240287208A1 (CONCEPT TO MEDICINE BIOTECH, published 2024).
Residue numbers refer to the chain shown, from its start.

Legend:
human 5T4 = target: T1, human 5T4 (human, UniProt Q13641 32-355, limits assumed); experiment: competitive ELISA on human 5T4
T1 construct: also called hu5T4
T1 sequence (looked up): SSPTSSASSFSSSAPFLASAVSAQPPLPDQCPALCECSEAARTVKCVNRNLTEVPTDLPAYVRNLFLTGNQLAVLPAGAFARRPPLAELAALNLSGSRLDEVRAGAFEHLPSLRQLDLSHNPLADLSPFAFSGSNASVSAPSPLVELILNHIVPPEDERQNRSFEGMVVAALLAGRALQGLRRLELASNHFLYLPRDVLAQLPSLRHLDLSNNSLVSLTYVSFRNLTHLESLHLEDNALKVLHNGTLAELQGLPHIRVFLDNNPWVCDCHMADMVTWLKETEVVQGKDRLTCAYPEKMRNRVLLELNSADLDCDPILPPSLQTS

[1] = target: T2, cynomolgus CD40-His protein (cynomolgus, UniProt G7PG38 21-193); experiment: ELISA, plate-coated cynomolgus CD40-His
T2 construct: His-tagged recombinant protein; also called cyno CD40 antigen
Description: (§1) To evaluate the binding activity of clones 42p155, 2p834, 2p931, 42p655, 2p1294, 2p957, 42p495, 3p78, 2p415, 2p442, 2p551, 2p80 and 2p1130, the chimeric monospecific antibody (mAb) from these clones were subjected to ELISA test, along with selicrelumab, the clinical benchmark anti-CD40 agonist antibodies.
The binding affinity of these clones to cynomolgus CD40 was also tested. Microtiter plates were coated with cynomolgus CD40-His protein at 1.0 μg/ml in PBS, 100 µl/well at 4° C. overnight, then blocked with 150 µl/well of 1% BSA. Ten-fold dilutions of 42p155, 2p834, 2p931, 42p655, 2p1294, 2p957, 42p495, 3p78, 2p415, 2p442, 2p551, 2p80 and 2p1130 antibodies starting from 100 nM were added to each well and incubated for 1 hour at RT. The plates were washed with PBS/Tween and then incubated with Anti-Human IgG (H&L) (GOAT) Antibody Peroxidase Conjugated for 30 mins at RT. After washing, the plates were developed with TMB substrate and analyzed by spectrophotometer at OD 450 nm. As shown in FIG. 1B and Table 2, all these clones bound to cynomolgus CD40 at high activity, showing good cross-reactivity between human and cynomolgus CD40 proteins.

human OX40 protein = target: T3, human OX40 protein (human, UniProt P43489 29-216, limits assumed); experiment: ELISA, plate-coated protein
T3 sequence (looked up): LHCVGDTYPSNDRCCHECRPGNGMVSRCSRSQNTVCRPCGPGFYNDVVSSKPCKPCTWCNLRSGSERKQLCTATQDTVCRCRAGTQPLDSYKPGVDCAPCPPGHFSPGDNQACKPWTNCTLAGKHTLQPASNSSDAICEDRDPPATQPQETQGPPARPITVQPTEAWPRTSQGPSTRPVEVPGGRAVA
Description: (§2) To evaluate the cross reactivity of chimeric anti-CD40 antibodies to other family members of TNF receptors, the ELISA binding towards human 4-1BB and human OX40 were performed.
(§3) Briefly, microtiter plates were coated with human 4-1BB protein or human OX40 protein at 1 μg/ml in PBS, 100 μl/well at 4° C. overnight, then blocked with 150 μl/well of 1% BSA. Ten-fold dilutions of 42p155, 2p834, 2p931, 42p655, 2p1294, 2p957, 42p495, 3p78, 2p415, 2p442, 2p551, 2p80 and 2p1130 antibodies starting from 100 nM were added to each well and incubated for 1 hour at RT. The plates were washed with PBS/Tween and then incubated with Anti-Human IgG (H&L) (GOAT) Antibody Peroxidase Conjugated for 30 mins at RT. After washing, the plates were developed with TMB substrate and analyzed by spectrophotometer at OD 450 nm.

human 4-1BB protein = target: T4, human 4-1BB protein (human, UniProt Q07011 24-186); experiment: ELISA, plate-coated protein
T4 construct: also called 4-IBB
Description: as §2, §3

human CD40-His protein [2] = target: T5, human CD40-His protein (human, UniProt P25942 21-193); experiment: SPR Biacore T200, antibody captured on Protein A, CD40-His as analyte
T5 construct: His-tagged recombinant protein; also called human CD40-his tag; recombinant CD40 protein
Description: Bispecific antibodies with each of the 42p155, 2p834, 2p931, 42p655, 2p1294, 2p957, 42p495, 3p78, 2p415, 2p442, 2p551 and 2p1130 clones, as well as 2p80 monospecific antibody, were captured using Protein A chip. A serial dilution of human CD40-his tag protein was injected over captured antibody for 2 mins at a flow rate of 30 μl/min. The antigen was allowed to dissociate for 6 min. All the experiments were carried out on a Biacore T200. Data analysis was carried out using the Biacore T200 evaluation software.

[3] = target: T6, human CD40 on the cell surface (human, UniProt P25942 21-277); experiment: cell-based or functional assay
human CD40-His protein [4] = target: T5, human CD40-His protein; experiment: ELISA, plate-coated human CD40-His
Description: as §1
as §3, with “human CD40-His” for “human 4-1BB protein or human OX40”, “at 1.0” for “at 1”, “150 µl/well” for “150 μl/well”

[5] = target: T6, human CD40 on the cell surface; experiment: FACS, Jurkat cells overexpressing human CD40, PE anti-human IgG, MFI
Description: To evaluate their binding affinity to cell surface CD40, chimeric anti-CD40 monospecific antibodies were tested in Jurkat cell lines that overexpressed CD40 by FACS. A total number of 1×10⁵ Jurkat-CD40 cells in each well were incubated with 10-fold serially diluted antibodies starting from 100 nM for 30 minutes at 4° C. in FACS buffer. After wash by FACS buffer, PE conjugated-anti-human IgG antibody was added to each well and incubated at 4° C. for 30 minutes. After wash, MFI of PE was evaluated by MACSQuant Analyzer 16.

[6] = target: T6, human CD40 on the cell surface; experiment: FACS, human dendritic cells, MFI

T5 sequence (P25942 21-193 limits assumed): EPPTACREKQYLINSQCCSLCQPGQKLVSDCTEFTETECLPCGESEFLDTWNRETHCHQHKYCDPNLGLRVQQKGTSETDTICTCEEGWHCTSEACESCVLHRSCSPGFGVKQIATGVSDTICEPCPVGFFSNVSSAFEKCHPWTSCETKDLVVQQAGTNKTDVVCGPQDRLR
T6 sequence (P25942 21-277): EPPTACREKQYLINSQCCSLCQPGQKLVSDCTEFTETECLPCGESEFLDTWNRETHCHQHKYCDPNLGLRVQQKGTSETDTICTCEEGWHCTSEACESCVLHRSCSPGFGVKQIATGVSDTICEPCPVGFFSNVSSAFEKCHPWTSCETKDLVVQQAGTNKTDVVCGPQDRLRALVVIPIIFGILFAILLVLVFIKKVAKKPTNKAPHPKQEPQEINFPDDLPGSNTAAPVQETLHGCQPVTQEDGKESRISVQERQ

B1: 159D5 anti-5T4 mouse monoclonal antibody (antibody, V domains shown)
VH: DVQLVESGGGLVQPGGSRKLSCTASGFTFSNFGMHWVRQAPETGLEWVAYISSGSSTFYYADSVKGRFTISRDNPKNTLFLQMTSLRSEDTAMYFCARSPAYYRYGLDYWGQGTTLTVSS
VL: DIVLTQSPASLAVSLGQRATISCRASQSVSSSTFSYMHWYQQKPGQPPKLLIKSSSNLESGVPARFSGSGSGTDFTLNIHPVEEEDTATYYCQHSWEIPYTFGGGTKLEIK
notes: Mouse monoclonal antibody from hybridoma
binding result (human 5T4): binds

B2: 2p80 chimeric monospecific antibody (antibody, V domains shown)
VH: QLQLVESGGGLVQAGGSLRLSCAASGRIFSSYAMSWFRQAPGKEREFVATIGWIGENTYYADSVKGRFTISRDNAKNTLYLQMNSLKPEDTAVYYCAAGLPANRYYDYWGQGTQVTVSS
notes: Chimeric monospecific antibody; also called 2p80 cAb
EC50 [1]: 8290 pM | binding result (human OX40 protein): no binding (tested: 100 nM (highest concentration)) | binding result (human 4-1BB protein): no binding (tested: 100 nM (highest concentration)) | Kd (human CD40-His protein [2]): 213000 pM | koff (human CD40-His protein [2]): 0.000293 s⁻¹ | kon (human CD40-His protein [2]): 1380 M⁻¹ s⁻¹ | CD40 NF-κB luciferase reporter (Jurkat), RLU [3]: > 10 nM | EC50 (human CD40-His protein [4]): 3080 pM

B3: 286B4 anti-5T4 mouse monoclonal antibody (antibody, V domains shown)
VH: DVQLHESGPGLVKPSQSLSLTCSVTGYSITNNYYWNWIRQFPGNNLEWMGYITYDGSNNYNPSLKNRISVTRDTSKNQFFLKLSSVTTEDTATYYCTRGGGQLRFDYWGQGTTLTVSS
VL: SIVMTQTPKFLIVSAGDRVTITCKASQSVSNEVTWYQQKPGQSPKMLIYYASNRYTGVPDRFTGSGYGTDFTFTINTVQAEDLAIYFCQQDYSSPWTFGGGTKLEIK
notes: as for B1
binding result (human 5T4): binds

B4: 393E9 anti-5T4 mouse monoclonal antibody (antibody, V domains shown)
VH: EVKLVESGGGLVQPGGSLSLSCAASGFTFTDYYMSWVRQPPGKALEWLGFIRNKGNGYTTENSASVKGRFTISRDNSQSILYLQMNALRAEDSATYYCARYRGNPHYAMDYWGQGTSVTVSS
VL: DIVLTQFPASLAVSLGQRATISCRASESVEFYGTSFLQWYQQKPGQPPKLLIYGASNVESGVPARFSGSGSGTDFSLSIHPVEEDDIAMYFCQQSRKVPSTFGGGTKLEIK
notes: as for B1
binding result (human 5T4): binds

B5: 2p834 chimeric monospecific antibody (antibody, V domains shown)
VH: QSQLVESGGGLVQPGGSLRLSCAASGFAFRRYTMSWVRQAPGKGLEWVSTITHNGSITTYAESAQGRFTISRDNAKNTLYLQMNSLKPEDTAVYYCAQGGGSNYYRESWGQGTQVTVSS
notes: Chimeric monospecific antibody
EC50 [1]: 200 pM | binding result (human OX40 protein): no binding (tested: 100 nM (highest concentration)) | binding result (human 4-1BB protein): no binding (tested: 100 nM (highest concentration)) | EC50 (read off the curve) [5]: ~200 pM | CD40 NF-κB luciferase reporter (Jurkat), RLU [3]: > 10 nM | EC50 (human CD40-His protein [4]): 760 pM

B6: 3p78 chimeric monospecific antibody (antibody, V domains shown)
VH: B5 VH with Q1P, S2V, A28T, R31N, T33A, S56A
notes: as for B5
EC50 [1]: 2840 pM | binding result (human OX40 protein): no binding (tested: 100 nM (highest concentration)) | binding result (human 4-1BB protein): no binding (tested: 100 nM (highest concentration)) | EC50 (read off the curve) [5]: ~2000 pM | CD40 NF-κB luciferase reporter (Jurkat), RLU [3]: > 10 nM | EC50 (human CD40-His protein [4]): 2950 pM

B7: 2p931 chimeric monospecific antibody (antibody, V domains shown)
VH: AVQLVESGGGLVQPGGSLRLSCAASGFSFRNYMMNWVRQAPGKGLECLSSITSAGDITSYTESVKGRFTISRDNAKNTLYLQMNSLKPEDTAVYYCAQGGCGNYYRESWGQGTQVTVSS
notes: as for B5
EC50 [1]: 260 pM | binding result (human OX40 protein): no binding (tested: 100 nM (highest concentration)) | binding result (human 4-1BB protein): no binding (tested: 100 nM (highest concentration)) | EC50 (read off the curve) [5]: ~200 pM | CD40 NF-κB luciferase reporter (Jurkat), RLU [3]: > 10 nM | EC50 (human CD40-His protein [4]): 990 pM

B8: b16 (42p155z2)-LALA humanized anti-5T4/CD40 bispecific antibody (bispecific antibody, human IgG1, kappa, L234A L235A)
heavy 1: QVQLVQSGAEVKKPGASVKVSCKASGYAFSSSWMNWVRQAPGQGLEWMGRIYREDGHTNYNGKFKGRVTMTADKSITTAYMELSRLRSDDTAVYYCANGGAMDYWGQGTLVTVSSASTKGPSVFPLAPSSKSTSGGTAALGCLVKDYFPEPVTVSWNSGALTSGVHTFPAVLQSSGLYSLSSVVTVPSSSLGTQTYICNVNHKPSNTKVDKKVEPKSCDKTHTCPPCPAPEAAGGPSVFLFPPKPKDTLMISRTPEVTCVVVDVSHEDPEVKFNWYVDGVEVHNAKTKPREEQYNSTYRVVSVLTVLHQDWLNGKEYKCKVSNKALPAPIEKTISKAKGQPREPQVCTLPPSREEMTKNQVSLSCAVKGFYPSDIAVEWESNGQPENNYKTTPPVLDSDGSFFLVSKLTVDKSRWQQGNVFSCSVMHEALHNHYTQKSLSLSPGK
light: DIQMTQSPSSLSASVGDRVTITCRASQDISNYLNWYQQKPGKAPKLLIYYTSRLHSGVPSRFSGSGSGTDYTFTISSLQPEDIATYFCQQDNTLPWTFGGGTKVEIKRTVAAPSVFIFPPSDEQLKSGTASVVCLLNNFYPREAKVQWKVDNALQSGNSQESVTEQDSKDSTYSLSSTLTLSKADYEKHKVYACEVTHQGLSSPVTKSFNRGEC
heavy 2: not shown
EC50 (read off the curve) [6]: ~500 pM
